Data: patent US20150259380A1 (SANFORD BURNHAM MEDICAL RESEARCH INSTITUTE, published 2015)
Ends that are not written are not given here.

Assays:
[1] = biological target: T1, recombinant human NRP1 (R&D), purified (human, UniProt O14786-2 22-644, limits assumed); experiment: phage binding to NRP1-coated microtiter wells, plaque titration (FIG. 2)
T1 construct: Bought protein; also called purified NRP1; immobilized NRP1
T1 sequence (looked up): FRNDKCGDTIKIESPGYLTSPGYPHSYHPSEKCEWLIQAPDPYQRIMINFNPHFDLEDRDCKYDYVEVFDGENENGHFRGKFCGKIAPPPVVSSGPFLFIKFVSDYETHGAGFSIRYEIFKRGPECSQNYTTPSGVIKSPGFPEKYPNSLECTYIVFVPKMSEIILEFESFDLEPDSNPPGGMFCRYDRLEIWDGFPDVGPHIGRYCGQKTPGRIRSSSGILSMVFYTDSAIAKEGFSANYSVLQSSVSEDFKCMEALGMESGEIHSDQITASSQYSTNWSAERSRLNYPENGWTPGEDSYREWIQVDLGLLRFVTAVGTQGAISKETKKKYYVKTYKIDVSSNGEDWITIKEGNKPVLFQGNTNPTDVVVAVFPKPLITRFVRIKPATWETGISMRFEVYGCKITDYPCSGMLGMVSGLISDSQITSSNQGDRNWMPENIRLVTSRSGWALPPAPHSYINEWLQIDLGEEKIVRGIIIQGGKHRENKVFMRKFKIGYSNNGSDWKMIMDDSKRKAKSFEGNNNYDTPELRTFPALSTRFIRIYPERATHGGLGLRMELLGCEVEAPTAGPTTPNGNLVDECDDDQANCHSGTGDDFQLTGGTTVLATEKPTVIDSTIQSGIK
Description: (§1) Microtiter wells (Costar) were coated with 5 μg/mL of purified NRP1 or NRP2, blocked with PBS supplemented with 0.5% BSA and incubated with 10⁸ plaque-forming units (pfu) of phage in 100 μL of PBS/0.05% Tween 20 for 20 h at 37° C. After six washes in PBS/0.05% Tween 20, bound phage was eluted with 200 μL of 1 M Tris-HCl (pH 7.5)/0.5% SDS for 30 min and quantified by a plaque assay (titration).

[2] = biological target: T2, recombinant human NRP2 Fc chimera (R&D), purified (human, UniProt O60462 23-864); experiment: phage binding to NRP2-coated microtiter wells, plaque titration (FIG. 3A)
T2 construct: Bought Fc chimera; also called purified NRP2; neuropilin-2; Fc part of the bought chimera not given; not described
T2 sequence (looked up): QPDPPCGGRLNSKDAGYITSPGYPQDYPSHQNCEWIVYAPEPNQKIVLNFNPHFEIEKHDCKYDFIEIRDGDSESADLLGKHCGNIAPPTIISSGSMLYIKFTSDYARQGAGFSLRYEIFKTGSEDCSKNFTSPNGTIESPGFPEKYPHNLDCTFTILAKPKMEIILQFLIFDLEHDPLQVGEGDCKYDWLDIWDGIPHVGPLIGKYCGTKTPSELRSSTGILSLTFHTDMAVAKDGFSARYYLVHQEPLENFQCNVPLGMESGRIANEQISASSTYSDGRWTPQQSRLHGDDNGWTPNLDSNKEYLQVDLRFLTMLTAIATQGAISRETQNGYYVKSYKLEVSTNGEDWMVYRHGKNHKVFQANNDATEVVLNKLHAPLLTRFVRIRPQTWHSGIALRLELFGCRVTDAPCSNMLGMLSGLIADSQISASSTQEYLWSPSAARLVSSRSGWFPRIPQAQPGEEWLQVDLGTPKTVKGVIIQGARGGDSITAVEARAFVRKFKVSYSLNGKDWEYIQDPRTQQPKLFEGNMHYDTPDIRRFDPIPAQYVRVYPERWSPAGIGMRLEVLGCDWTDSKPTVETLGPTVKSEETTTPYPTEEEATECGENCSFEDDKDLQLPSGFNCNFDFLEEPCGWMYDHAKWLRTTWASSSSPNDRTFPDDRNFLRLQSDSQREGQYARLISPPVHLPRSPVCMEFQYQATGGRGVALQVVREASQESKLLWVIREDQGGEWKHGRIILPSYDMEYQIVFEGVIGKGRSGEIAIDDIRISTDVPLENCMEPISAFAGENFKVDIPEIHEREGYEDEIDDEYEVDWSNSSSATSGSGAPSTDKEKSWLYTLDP
Description: B. MDA-MB-435 cells were incubated with phage at 4° C. to assess NRP2 binding. […] Binding is expressed as percentage of binding in control conditions. (mean±SEM; n=4/group; * p<0.05; **, p<0.01).
as §1

[3] = biological target: T3, NRP1 on human tumor cells (DU145 prostate carcinoma cells; PPC1 prostate tumor cells) (human, UniProt O14786 22-923); experiment: 10^9 pfu phage on cultured PPC1 cells, anti-T7 staining, confocal microscopy
T3 construct: whole, on cells; DU145 express NRP1 but not NRP2; PPC1 express very high NRP1 and low NRP2; also called neuropilin-1; CendR receptor
Description: Phage were detected by staining with anti-T7 phage polyclonal antibody. Nuclei were stained with DAPI. […] Cells were co-stained for NRP1 and nuclei were stained with DAPI. […] Non-conjugated neutravidin was used as a control. Nuclei were stained with DAPI. Cells were analyzed by confocal microscopy.

[4] = biological target: T4, p32 in 4T1 breast tumor extracts (mouse, UniProt O35658 71-278); experiment: affinity chromatography of 4T1 tumor extracts on immobilized tLyP-1
T4 construct: Endogenous protein from tumor extract
T4 sequence (looked up): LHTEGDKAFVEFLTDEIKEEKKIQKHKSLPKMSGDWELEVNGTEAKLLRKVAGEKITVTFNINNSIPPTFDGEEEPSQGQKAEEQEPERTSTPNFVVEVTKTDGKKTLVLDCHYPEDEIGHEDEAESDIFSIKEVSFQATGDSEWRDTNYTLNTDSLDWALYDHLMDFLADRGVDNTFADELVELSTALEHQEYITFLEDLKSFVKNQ

[5] = biological target: T3, NRP1 on human tumor cells (DU145 …); experiment: phage binding to DU145 cells at 4 C with or without anti-NRP1 (FIG. 1B)

| Binder | binding as fold over control (insertless) phage [1] | binding as fold over control (insertless) phage [2] | binding result [5] | other results |
| --- | --- | --- | --- | --- |
| CGNKRTRGC (also: cyclic nonapeptide, ring not given here, displayed on T7 phage, LyP-1 is described as a cyclic nonapeptide; also called intact LyP-1) [LyP-1 phage (T7 phage displaying full-length LyP-1, CGNKRTRGC)] | 1.6 fold | 0.6 fold |  | binding result [1]: no binding; binding result [2]: no binding; binding result [3]: no binding |
| CGNKRTR (the coupling is not described) [tLyP-1 affinity matrix (immobilized tLyP-1 peptide)] |  |  |  | binding result [4]: no binding |
| CGNKR [CGNKR phage (truncated LyP-1, amino acids 1-5 of SEQ ID NO:10)] |  |  | no binding |  |
| CGNKRTR (also called CGNKRTR phage; phage tLyP-1) [tLyP-1 phage (T7 phage displaying CGNKRTR, truncated LyP-1)] | 119 fold | 8 fold |  | binding as fold over insertless control phage [1]: ~120 fold |
| CGNK [CGNK phage (truncated LyP-1, amino acids 1-4 of SEQ ID NO:10)] |  |  | no binding |  |
| RPARPAR [RPARPAR phage (T7 phage displaying the prototypic CendR peptide RPARPAR)] | 276 fold | 29 fold |  | binding ratio over the control phage [1]: 280 fold |
